Assay results: patent US10662235B2, “Cysteine engineered fibronectin type III domain binding molecules” (Janssen Biotech, Inc., priority 2016, dated 2020)
Substitutions are numbered along the chain they refer to. In names and notes the source's numbering stands.

Assays:
[1] = Body weight loss / tolerability in H292-HGF xenograft study; conditions: treatment and 2 weeks observation
Method: At the time of routine monitoring, the animals were checked for any effects of tumor growth and treatments on normal behavior, such as mobility, visual estimation of food and water consumption, body weight gain/loss (body weights were measured twice weekly), eye/hair matting and any other abnormal effect.
Animals for which the body weight loss exceeded 20%, or for which the mean tumor size of the group exceeds 2000 mm^3 were euthanized. The study was terminated after two weeks of observation after the final dose.

[2] = test system: H292-HGF human lung cancer xenograft; test: Efficacy of bispecific molecule and other inhibitors in H292-HGF xenograft model (tumor volume, T/C, T-C); assay type: in vivo, SCID/Beige mice
Method: The H292-HGF cells were maintained in vitro in RPMI1640 medium supplemented with fetal bovine serum (10% v/v), and L-glutamine (2 mM) at 37° C. in an atmosphere of 5% CO2 in air. The cells were routinely subcultured twice weekly by trypsin-EDTA treatment. The cells growing in an exponential growth phase were harvested and counted for tumor inoculation.
Each mouse was inoculated subcutaneously at the right flank region with H292-HGF tumor cells (2×10^6) in 0.1 ml of PBS with cultrex (1:1) for tumor development. The treatments were started when the mean tumor size reached 139 mm^3. […] The date of tumor cell inoculation was denoted as day 0.
Before commencement of treatment, all animals were weighed and the tumor volumes were measured. Since the tumor volume can affect the effectiveness of any given treatment, mice were assigned into groups using randomized block design based upon their tumor volumes. […] The randomized block design was used to assign experimental animals to groups. First, the experimental animals were divided into homogeneous blocks according to their initial tumor volume. Secondly, within each block, randomization of experimental animals to treatments was conducted.
The major endpoint was whether tumor growth can be delayed or tumor bearing mice can be cured. Tumor size was measured twice weekly in two dimensions using a caliper, and the volume was expressed in mm^3 using the formula: V=0.5a×b^2 where a and b are the long and short diameters of the tumor, respectively. The tumor size was then used for calculations of both T-C and T/C values. T-C was calculated with T as the time (in days) required for the mean tumor size of the treatment group to reach 1000 mm^3, and C was the time (in days) for the mean tumor size of the control group to reach the same size. The T/C value (in percent) was an indication of antitumor efficacy; T and C were the mean volume of the treated and control groups, respectively, on a given day. Complete tumor regression (CR) is defined as tumors that are reduced to below the limit of palpation (62.5 mm^3). Partial tumor regression (PR) is defined as tumors that are reduced from initial tumor volume. A minimum duration of CR or PR in 3 or more successive tumor measurements is required for a CP or PR to be considered durable.
Statistical analyses of difference in tumor volume among the groups were evaluated using a one-way ANOVA followed by individual comparisons using Games-Howell (equal variance not assumed). All data were analyzed using SPSS 18.0. p<0.05 was considered to be statistically significant.

[3] = test system: H292-HGF tumor xenografts; test: Tumor efficacy study with bispecific EGFR/c-Met molecules (tumor growth inhibition); assay type: in vivo, SCID Beige mice; conditions: 25 mg/kg three times per week (FIG. 10)
Method: One week after implantation, mice were stratified into groups with equivalent tumor volumes (mean tumor volume=77.9+/−1.7 mm^3). Mice were dosed three times per week with the bispecific molecules and tumor volumes were recorded twice weekly.

[4] = Thermal stability by differential scanning calorimetry; assay type: physicochemical; conditions: cysteine-NEM conjugates; for First Scan Tm: DSC 25-100° C., 1° C. per minute; for Second Scan Tm: second identical scan
Method: The thermal stability of cysteine-NEM conjugates was assessed by differential scanning calorimetry (DSC). The only the conjugates tested were those determined to express at high levels, conjugate efficiently, and retain EGFR binding. Additionally, cysteine variants within the BC and FG loops were excluded. Stability data was generated by heating a 400 μL aliquot of the variant from 25° C. to 100° C. at a scan rate of 1° C. per minute in a VP-DSC instrument (MicroCal). A second identical scan was completed on the sample in order to assess the reversibility of thermal folding/unfolding. Data was fitted to a 2-state unfolding model in order to calculate the melting temperature (Table 10).
Thermal Stability of c-Met-Binding FN3 Domains Differential scanning calorimetry in PBS was used to assess the stability of each FN3 domain.

H1573 cells = test: Cytotoxicity assay of cytotoxin conjugates in H1573 cells; assay type: cell-based, human; conditions: MMAF conjugates; for IC50: Cell TiterGlo at 70 hours, read-out: IC50 (cell killing)
Method: Cell killing was assessed by measuring viability of the EGFR-overexpressing human tumor cell line H1573 following exposure to the cysteine variant-cytotoxin conjugates. […] Cells were allowed to attach overnight at 37° C. in a humidified 5% CO2 atmosphere. Medium was aspirated from 96-well plate and cells were treated with 50 uL of fresh media and 50 uL of 2× inhibitor made up in fresh media. Cell viability was determined by an endpoint assay with Cell TiterGlo (Promega) at 70 hours. IC50 values were determined by fitting data to the equation for a sigmoidal dose response with variable slope using GraphPad Prism 5 (GraphPad Software).
Conjugates consisting of ECB147 cysteine variants, 83v2-cys, or Tencon-cys linked to a cytotoxic tubulin inhibitor from the auristatin family (FIG. 2) were tested for target-dependent cytotoxicity in cancer cells. The inhibitor was linked to the cysteine-containing protein via a non-cleavable PEG4 linker or an enzyme-cleavable valine-citrulline or valine-lysine linker.

[5] = Analytical size exclusion chromatography (aggregation state, percent monomer); assay type: physicochemical; conditions: NEM-conjugated cysteine variants; SEC, Abs280
Method: Size exclusion chromatography was used to determine the aggregation state of the FN3 domains binding EGFR. Aliquots (10 μL) of each purified FN3 domain were injected onto a Superdex 75 5/150 column (GE Healthcare) at a flow rate of 0.3 mL/min in a mobile phase of PBS pH 7.4. Elution from the column was monitored by absorbance at 280 nm.
The percent monomer for each protein was determined by integrating the Abs280 signal and comparing the peak in the monomer region (5.5-6 minutes) to the peaks in the oligomer region (4-5.3 minutes).

C[C@@H](Oc1cc(-c2cnn(C3CCNCC3)c2)cnc1N)c1c(Cl)ccc(F)c1Cl [Crizotinib]
toxicity / body weight loss / tolerability [1]: More severe body weight loss | antitumor activity ([2]; H292-HGF xenograft): no antitumor activity | T/C value ([2]; day 23): 120%

C#Cc1cccc(Nc2ncnc3cc(OCCOC)c(OCCOC)cc23)c1 [Erlotinib]
toxicity / body weight loss / tolerability [1]: More severe body weight loss

B1: ECB39: bispecific P53A1R5-17v2 / P114AR7P94-A3 linked to albumin binding domain, SEQ ID 121 (protein)
chain: MLPAPKNLVVSEVTEDSARLSWADPHGFYDSFLIQYQESEKVGEAIVLTVPGSERSYDLTGLKPGTEYTVSIYGVHNVYKDTNMRGLPLSAIFTTAPAPAPAPAPLPAPKNLVVSRVTEDSARLSWTAPDAAFDSFWIRYFEFLGSGEAIVLTVPGSERSYDLTGLKPGTEYVVNIMGVKGGKISPPLSAIFTTAPAPAPAPAPLAEAKVLANRELDKYGVSDYYKNLINNAKTVEGVKALLDEILAALP
modifications: Bispecific EGFR/c-Met binding molecule
tumor growth inhibition (TGI) [3]: showed the most efficacy

B2: N6C (protein)
chain: LPAPKCLVVSEVTEDSARLSWDDPWAFYESFLIQYQESEKVGEAIVLTVPGSERSYDLTGLKPGTEYTVSIYGVHNVYKDTNMRGLPLSAIFTT
First Scan Tm [4]: 71 °C | Second Scan Tm [4]: 70 °C | IC50 relative to parent conjugate (H1573 cells): over two times more potent than the parent | IC50 (H1573 cells): 0.16 nM | Percent monomer [5]: 94%

B3: S70C (protein)
chain 1: MLPAPKNLVVSEVTEDSARLSWDDPWAFYESFLIQYQESEKVGEAIVLTVPGSERSYDLTGLKPGTEYTVCIYGVHNVYKDTNMRGLPLSAIFTT
chain 2: B2 chain with C6N, S70C
modifications: EGFR binding FN3 domain; EGFR-binding FN3 domain
First Scan Tm [4]: 73 °C | Second Scan Tm [4]: 72 °C | IC50 (H1573 cells): 1.14 nM | Percent monomer [5]: 100%

B4: S38C (protein)
chain 1: B3 chain 1 with S39C, C71S
chain 2: B2 chain with C6N, S38C
modifications: EGFR binding FN3 domain; EGFR-binding FN3 domain
First Scan Tm [4]: 65 °C | Second Scan Tm [4]: 65 °C | IC50 (H1573 cells): 0.76 nM | Percent monomer [5]: 93%

B5: S16C (protein)
chain 1: B3 chain 1 with S17C, C71S
chain 2: B2 chain with C6N, S16C
modifications: EGFR binding FN3 domain; EGFR-binding FN3 domain
First Scan Tm [4]: 68 °C | Second Scan Tm [4]: 68 °C | IC50 (H1573 cells): 0.75 nM | Percent monomer [5]: 75%

B6: V8C (protein)
chain 1: B3 chain 1 with V9C, C71S
chain 2: B2 chain with C6N, V8C
modifications: EGFR binding FN3 domain; EGFR-binding FN3 domain
First Scan Tm [4]: 69 °C | Second Scan Tm [4]: 69 °C | IC50 (H1573 cells): 0.35 nM | Percent monomer [5]: 91%

B7: S10C (protein)
chain 1: B3 chain 1 with S11C, C71S
chain 2: B2 chain with C6N, S10C
modifications: EGFR binding FN3 domain; EGFR-binding FN3 domain
First Scan Tm [4]: 68 °C | Second Scan Tm [4]: 68 °C | IC50 (H1573 cells): 0.43 nM | Percent monomer [5]: 80%

B8: R54C (protein)
chain 1: B3 chain 1 with R55C, C71S
chain 2: B2 chain with C6N, R54C
modifications: EGFR binding FN3 domain; EGFR-binding FN3 domain
First Scan Tm [4]: 65 °C | Second Scan Tm [4]: 65 °C | IC50 (H1573 cells): 0.37 nM | Percent monomer [5]: 96%

B9: S20C (protein)
chain 1: B3 chain 1 with S21C, C71S
chain 2: B2 chain with C6N, S20C
modifications: EGFR binding FN3 domain; EGFR-binding FN3 domain
First Scan Tm [4]: 70 °C | Second Scan Tm [4]: 70 °C | IC50 (H1573 cells): 0.36 nM | Percent monomer [5]: 94%

B10: T59C (protein)
chain 1: B3 chain 1 with T60C, C71S
chain 2: B2 chain with C6N, T59C
modifications: EGFR binding FN3 domain; EGFR-binding FN3 domain
First Scan Tm [4]: 67 °C | Second Scan Tm [4]: 67 °C | IC50 (H1573 cells): 0.44 nM | Percent monomer [5]: 100%

B11: T48C (protein)
chain 1: B3 chain 1 with T49C, C71S
chain 2: B2 chain with C6N, T48C
modifications: EGFR binding FN3 domain; EGFR-binding FN3 domain
First Scan Tm [4]: 72 °C | Second Scan Tm [4]: 72 °C | IC50 (H1573 cells): 0.59 nM | Percent monomer [5]: 90%

B12: S30C (protein)
chain 1: B3 chain 1 with S31C, C71S
chain 2: B2 chain with C6N, S30C
modifications: EGFR binding FN3 domain; EGFR-binding FN3 domain
First Scan Tm [4]: 71 °C | Second Scan Tm [4]: 71 °C | IC50 (H1573 cells): 0.78 nM | Percent monomer [5]: 94%

B13: T93C (protein)
chain 1: B3 chain 1 with C71S, T94C
chain 2: B2 chain with C6N, T93C
modifications: EGFR binding FN3 domain; EGFR-binding FN3 domain
First Scan Tm [4]: 69 °C | Second Scan Tm [4]: 69 °C | IC50 relative to parent conjugate (H1573 cells): over two times more potent than the parent | IC50 (H1573 cells): 0.2 nM | Percent monomer [5]: 100%

B14: V41C (protein)
chain 1: B3 chain 1 with V42C, C71S
chain 2: B2 chain with C6N, V41C
modifications: EGFR binding FN3 domain; EGFR-binding FN3 domain
First Scan Tm [4]: 71 °C | Second Scan Tm [4]: 71 °C | IC50 (H1573 cells): 1.13 nM | Percent monomer [5]: 98%

B15: I91C (protein)
chain: B2 chain with C6N, I91C
First Scan Tm [4]: 70 °C | Second Scan Tm [4]: 69 °C | IC50 (H1573 cells): 0.54 nM | Percent monomer [5]: 100%

B16: S89C (protein)
chain 1: B3 chain 1 with C71S, S90C
chain 2: B2 chain with C6N, S89C
modifications: EGFR binding FN3 domain; EGFR-binding FN3 domain
First Scan Tm [4]: 72 °C | Second Scan Tm [4]: 71 °C | IC50 (H1573 cells): 0.94 nM | Percent monomer [5]: 96%

B17: E53C (protein)
chain: B3 chain 1 with E54C, C71S
modifications: EGFR binding FN3 domain
IC50 relative to parent conjugate (H1573 cells): over two times more potent than the parent

B18: ECB18: bispecific P54AR4-83v2 / P114AR5P74-A5 linked to albumin binding domain, SEQ ID 118 (protein)
chain: MLPAPKNLVVSEVTEDSARLSWDDPWAFYESFLIQYQESEKVGEAIVLTVPGSERSYDLTGLKPGTEYTVSIYGVHNVYKDTNMRGLPLSAIFTTAPAPAPAPAPLPAPKNLVVSRVTEDSARLSWTAPDAAFDSFWIRYDEVVVGGEAIVLTVPGSERSYDLTGLKPGTEYYVNILGVKGGSISVPLSAIFTTAPAPAPAPAPLAEAKVLANRELDKYGVSDYYKNLINNAKTVEGVKALLDEILAALP
modifications: Bispecific EGFR/c-Met binding molecule
tumor growth inhibition (TGI) [3]: delay in tumor growth
